According to PMC12840758, “The Cold Shock Protein CspB from Mycobacterium tuberculosis Binds to MTS0997 sRNA and MTS1338 sRNA as a Dimer” (International Journal of Molecular Sciences, 2026):

Biological target: the molecule itself
Test: SEC; Superdex 75 Increase 10/300 GL, 200 mM NaCl, 50 mM Tris-HCl pH 8.0; 1 mg/mL, 100 uL injected, 0.5 mL/min; calibrated with monomeric globular proteins of 45.8, 24.8, 15.4 and 7.3 kDa

B1: Cold shock protein CspB from Mycobacterium tuberculosis (natural protein)
chain: MPTGKVKWYDPDKGFGFLSQEGGEDVYVRSSALPTGVEALKAGQRVEFGIASGRRGPQALSLRLIEPPPSLSRPRREPAAEHKHSPDELHGMVEDMITLLESTVQPELRKGRYPDRKTARRVAEVVRAVAREFES
notes: Removal of the C-terminal His6 tag is not mentioned; also called MtbCspB; M. tuberculosis CspB
stoichiometry N: 2
